Legend:
Human active TGFβ1 = target: T1, Human active TGFβ1 (human, UniProt P01137 279-390); experiment: blocking of active TGFβ1 (1 ng/mL) in solution, 30 min in PBS; free TGFβ1 by ELISA
T1 construct: mature; also called TGFB1
Source text: TGFβ causes a wide range of immune suppression in several immune cell types including inhibition of crucial early innate IFN responses.

active TGFβ3 = active TGFβ3 (UniProt P10600); experiment: blocking of active TGFβ3 (1 ng/mL) in solution, 30 min in PBS; free TGFβ3 by ELISA
Chain of active TGFβ3 (P10600 301-412): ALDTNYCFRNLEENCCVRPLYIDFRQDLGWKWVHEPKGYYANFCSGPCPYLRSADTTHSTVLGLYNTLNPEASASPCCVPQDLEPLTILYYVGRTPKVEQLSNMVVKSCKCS

T1 sequence (P01137 279-390 limits assumed): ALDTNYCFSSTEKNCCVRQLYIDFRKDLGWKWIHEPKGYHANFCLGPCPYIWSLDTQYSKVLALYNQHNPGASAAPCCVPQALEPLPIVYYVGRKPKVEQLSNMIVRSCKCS

| Molecule | IC50 (Human active TGFβ1) [nM] | IC50 (active TGFβ3) [nM] |
| --- | --- | --- |
| FIST (monovalent FIST; IL2-sTBRII) | 1.29 | 3.6 |
| TβRII isoform 2 (receptor, UniProt P37173-2 24-184, looked up, also called TβRll (isoform II); control (TβRII isoform 2)) IPPHVQKSDVEMEAQKDEIICPSCNRTAHPLRHINNDMIVTDNNGAVKFPQLCKFCDVRFSTCDNQKSCMSNCSITSICEKPQEVCVAVWRKNDENITLETVCHDPKLPYHDFILEDAASPKCIMKEKKKPGETFFMCSCSSDECNDNIIFSEEYNTSNPD | 0.02 |  |
